Key:
[1] = molecular target: T1, PE-labeled AFP158/HLA-A*02:01 tetramer (human, biotinylated via the BSP peptide linked to the C-terminal end of the HLA-A*02:01 extracellular domain); test: flow cytometry; Jurkat cells transduced with the construct, stained with PE-labelled AFP158/HLA-A*02:01 tetramer
T1 construct: monomers single chain; also called AFP158 tetramer; AFP158/HLA-A*02:01 tetramers; not shown: BSP peptide (BirA biotinylation site) at the C-terminus

[2] = molecular target: T1, PE-labeled AFP158/HLA-A*02:01 tetramer; test: flow cytometry; J.RT3-T3.5 cells transduced with the construct, stained with PE-labelled AFP158/HLA-A*02:01 tetramer
[3] = molecular target: T1, PE-labeled AFP158/HLA-A*02:01 tetramer; test: flow cytometry, AFP158 tetramer binding on transduced T cells
Experimental: Primary human T-cells were used for transduction after one-day stimulation with CD3/CD28 beads (Dynabeads®, Invitrogen) in the presence of interleukin-2 (IL-2) at 100 U/ml. Concentrated lentiviruses were applied to T-cells in Retronectin-(Takara) coated 6-well plates for 96 hours. Transduction efficiencies of the anti-AFP and anti-CD19 chimeric constructs were assessed by flow cytometry, using biotinylated AFP158/HLA-A*02:01 tetramer (“AFP158 tetramer”) with PE-conjugated streptavidin or anti-myc antibody respectively. Repeat flow cytometry analyses were done on day 5 and every 3-4 days thereafter.
Specific lysis was measured after 16 hr incubation using the Cytox 96 Non-radioactive Cytotoxicity Assay (Promega).

Row | Binder | % of cells in gate high [1] | % of cells in gate low [1] | % of cells in gate negative [1] | % of cells in gate high [2] | % of cells in gate low [2] | % of cells in gate negative [2] | AFP 158 tetramer+ (percent) [3]
1 | anti-AFP158/HLA-A*02:01-abTCR-6 (other) chain 1: EVQLVQSGAEVKKPGESLTISCKASGYSFPNYWITWVRQMSGGGLEWMGRIDPGDSYTTYNPSFQGHVTISIDKSTNTAYLHWNSLKASDTAMYYCARYYVSLVDIWGQGTLVTVSSASTKGPSVFPLAPSSKSTSGGTAALGCLVKDYFPEPVTVSWNSGALTSGVHTFPAVLQSSGLYSLSSVVTVPSSSLGTQTYICNVNHKPSNTKVDKRVEPKSCDHVKPKETENTKQPSKSCHKPKAIVHTEKVNMMSLTVLGLRMLFAKTVAVNFLLTAKLFFLYPYDVPDYA chain 2: QSVLTQPASVSGSPGQSITISCTGTSSDVGGYNYVSWYQQHPGKAPKLMIYDVNNRPSEVSNRFSGSKSGNTASLTISGLQAEDEADYYCSSYTTGSRAVFGGGTKLTVLGQPKANPTVTLFPPSSEELQANKATLVCLISDFYPGAVTVAWKADGSPVKAGVETTKPSKQSNNKYAASSYLSLTPEQWKSHRSYSCQVTHEGSTVEKTVAPTECSMDPKDNCSKDANDTLLLQLTNTSAYYMYLLLLLKSVVYFAIITCCLLRRTAFCCNGEKSDYKDHDGDYKDHDIDYKDDDDK | 6.17% | 4.36% | 89.5% | 8% | 5.35% | 87.2% | –
2 | anti-AFP158/HLA-A*02:01-abTCR-3 (other) chain 1: EVQLVQSGAEVKKPGESLTISCKASGYSFPNYWITWVRQMSGGGLEWMGRIDPGDSYTTYNPSFQGHVTISIDKSTNTAYLHWNSLKASDTAMYYCARYYVSLVDIWGQGTLVTVSSASTKGPSVFPLAPSSKSTSGGTAALGCLVKDYFPEPVTVSWNSGALTSGVHTFPAVLQSSGLYSLSSVVTVPSSSLGTQTYICNVNHKPSNTKVDKRVEPKSCESSCDVKLVEKSFETDTNLNFQNLSVIGFRILLLKVAGFNLLMTLRLWSSDYKDHDGDYKDHDIDYKDDDDK chain 2: QSVLTQPASVSGSPGQSITISCTGTSSDVGGYNYVSWYQQHPGKAPKLMIYDVNNRPSEVSNRFSGSKSGNTASLTISGLQAEDEADYYCSSYTTGSRAVFGGGTKLTVLGQPKANPTVTLFPPSSEELQANKATLVCLISDFYPGAVTVAWKADGSPVKAGVETTKPSKQSNNKYAASSYLSLTPEQWKSHRSYSCQVTHEGSTVEKTVAPTECSADCGFTSVSYQQGVLSATILYEILLGKATLYAVLVSALVLMAMVKRKDFYPYDVPDYA | 3.7% | 56.2% | 40.2% | 5.68% | – | 19.5% | –
3 | anti-AFP158/HLA-A*02:01-abTCR-6MD (other, also called anti-AFP158 abTCR) chain 1: EVQLVQSGAEVKKPGESLTISCKASGYSFPNYWITWVRQMSGGGLEWMGRIDPGDSYTTYNPSFQGHVTISIDKSTNTAYLHWNSLKASDTAMYYCARYYVSLVDIWGQGTLVTVSSASTKGPSVFPLAPSSKSTSGGTAALGCLVKDYFPEPVTVSWNSGALTSGVHTFPAVLQSSGLYSLSSVVTVPSSSLGTQTYICNVNHKPSNTKVDKRVEPKSCEVKTDSTDHVKPKETENTKQPSKSCHKPKAIVHTEKVNMMSLTVLGLRMLFAKTVAVNFLLTAKLFFLYPYDVPDYA chain 2: QSVLTQPASVSGSPGQSITISCTGTSSDVGGYNYVSWYQQHPGKAPKLMIYDVNNRPSEVSNRFSGSKSGNTASLTISGLQAEDEADYYCSSYTTGSRAVFGGGTKLTVLGQPKANPTVTLFPPSSEELQANKATLVCLISDFYPGAVTVAWKADGSPVKAGVETTKPSKQSNNKYAASSYLSLTPEQWKSHRSYSCQVTHEGSTVEKTVAPTECSPIKTDVITMDPKDNCSKDANDTLLLQLTNTSAYYMYLLLLLKSVVYFAIITCCLLRRTAFCCNGEKSDYKDHDGDYKDHDIDYKDDDDK | 19% | 9.54% | 71.5% | 24.2% | 13.8% | 63.4% | –
4 | anti-AFP158/HLA-A*02:01-abTCR-5 (other) chain 1: QSVLTQPASVSGSPGQSITISCTGTSSDVGGYNYVSWYQQHPGKAPKLMIYDVNNRPSEVSNRFSGSKSGNTASLTISGLQAEDEADYYCSSYTTGSRAVFGGGTKLTVLGQPKANPTVTLFPPSSEELQANKATLVCLISDFYPGAVTVAWKADGSPVKAGVETTKPSKQSNNKYAASSYLSLTPEQWKSHRSYSCQVTHEGSTVEKTVAPTECSDHVKPKETENTKQPSKSCHKPKAIVHTEKVNMMSLTVLGLRMLFAKTVAVNFLLTAKLFFLYPYDVPDYA chain 2: EVQLVQSGAEVKKPGESLTISCKASGYSFPNYWITWVRQMSGGGLEWMGRIDPGDSYTTYNPSFQGHVTISIDKSTNTAYLHWNSLKASDTAMYYCARYYVSLVDIWGQGTLVTVSSASTKGPSVFPLAPSSKSTSGGTAALGCLVKDYFPEPVTVSWNSGALTSGVHTFPAVLQSSGLYSLSSVVTVPSSSLGTQTYICNVNHKPSNTKVDKRVEPKSCMDPKDNCSKDANDTLLLQLTNTSAYYMYLLLLLKSVVYFAIITCCLLRRTAFCCNGEKSDYKDHDGDYKDHDIDYKDDDDK | 7.64% | 3.7% | 88.7% | 9.41% | 4.98% | 86.1% | –
5 | anti-AFP158/HLA-A*02:01 abTCR with IgG1 CH1 domain (other) heavy: EVQLVQSGAEVKKPGESLTISCKASGYSFPNYWITWVRQMSGGGLEWMGRIDPGDSYTTYNPSFQGHVTISIDKSTNTAYLHWNSLKASDTAMYYCARYYVSLVDIWGQGTLVTVSSASTKGPSVFPLAPSSKSTSGGTAALGCLVKDYFPEPVTVSWNSGALTSGVHTFPAVLQSSGLYSLSSVVTVPSSSLGTQTYICNVNHKPSNTKVDKRVEPKSCEVKTDSTDHVKPKETENTKQPSKSCHKPKAIVHTEKVNMMSLTVLGLRMLFAKTVAVNFLLTAKLFFL light: QSVLTQPASVSGSPGQSITISCTGTSSDVGGYNYVSWYQQHPGKAPKLMIYDVNNRPSEVSNRFSGSKSGNTASLTISGLQAEDEADYYCSSYTTGSRAVFGGGTKLTVLGQPKANPTVTLFPPSSEELQANKATLVCLISDFYPGAVTVAWKADGSPVKAGVETTKPSKQSNNKYAASSYLSLTPEQWKSHRSYSCQVTHEGSTVEKTVAPTECSPIKTDVITMDPKDNCSKDANDTLLLQLTNTSAYYMYLLLLLKSVVYFAIITCCLLRRTAFCCNGEKS | – | – | – | – | – | – | 64.5 percent
6 | anti-AFP158/HLA-A*02:01 abTCR with IgG4 CH1 domain (other) heavy: EVQLVQSGAEVKKPGESLTISCKASGYSFPNYWITWVRQMSGGGLEWMGRIDPGDSYTTYNPSFQGHVTISIDKSTNTAYLHWNSLKASDTAMYYCARYYVSLVDIWGQGTLVTVSSASTKGPSVFPLAPCSRSTSESTAALGCLVKDYFPEPVTVSWNSGALTSGVHTFPAVLQSSGLYSLSSVVTVPSSSLGTKTYTCNVDHKPSNTKVDKRVESKYGEVKTDSTDHVKPKETENTKQPSKSCHKPKAIVHTEKVNMMSLTVLGLRMLFAKTVAVNFLLTAKLFFL light: QSVLTQPASVSGSPGQSITISCTGTSSDVGGYNYVSWYQQHPGKAPKLMIYDVNNRPSEVSNRFSGSKSGNTASLTISGLQAEDEADYYCSSYTTGSRAVFGGGTKLTVLGQPKANPTVTLFPPSSEELQANKATLVCLISDFYPGAVTVAWKADGSPVKAGVETTKPSKQSNNKYAASSYLSLTPEQWKSHRSYSCQVTHEGSTVEKTVAPTECSPIKTDVITMDPKDNCSKDANDTLLLQLTNTSAYYMYLLLLLKSVVYFAIITCCLLRRTAFCCNGEKS | – | – | – | – | – | – | 22.2 percent
7 | anti-AFP158/HLA-A*02:01-abTCR-4 (other) chain 1: QSVLTQPASVSGSPGQSITISCTGTSSDVGGYNYVSWYQQHPGKAPKLMIYDVNNRPSEVSNRFSGSKSGNTASLTISGLQAEDEADYYCSSYTTGSRAVFGGGTKLTVLGQPKANPTVTLFPPSSEELQANKATLVCLISDFYPGAVTVAWKADGSPVKAGVETTKPSKQSNNKYAASSYLSLTPEQWKSHRSYSCQVTHEGSTVEKTVAPTECSESSCDVKLVEKSFETDTNLNFQNLSVIGFRILLLKVAGFNLLMTLRLWSSDYKDHDGDYKDHDIDYKDDDDK chain 2: EVQLVQSGAEVKKPGESLTISCKASGYSFPNYWITWVRQMSGGGLEWMGRIDPGDSYTTYNPSFQGHVTISIDKSTNTAYLHWNSLKASDTAMYYCARYYVSLVDIWGQGTLVTVSSASTKGPSVFPLAPSSKSTSGGTAALGCLVKDYFPEPVTVSWNSGALTSGVHTFPAVLQSSGLYSLSSVVTVPSSSLGTQTYICNVNHKPSNTKVDKRVEPKSCADCGFTSVSYQQGVLSATILYEILLGKATLYAVLVSALVLMAMVKRKDFYPYDVPDYA | 0.574% | 12.3% | 87.1% | 0.928% | 19.1% | 80.1% | –

From patent publication US20220348629A1 (EUREKA THERAPEUTICS, published 2022)
